Reference: US20070014720A1 (published 2007)

T1: human CD20 (human, UniProt P11836 1-297)
T1 sequence (looked up): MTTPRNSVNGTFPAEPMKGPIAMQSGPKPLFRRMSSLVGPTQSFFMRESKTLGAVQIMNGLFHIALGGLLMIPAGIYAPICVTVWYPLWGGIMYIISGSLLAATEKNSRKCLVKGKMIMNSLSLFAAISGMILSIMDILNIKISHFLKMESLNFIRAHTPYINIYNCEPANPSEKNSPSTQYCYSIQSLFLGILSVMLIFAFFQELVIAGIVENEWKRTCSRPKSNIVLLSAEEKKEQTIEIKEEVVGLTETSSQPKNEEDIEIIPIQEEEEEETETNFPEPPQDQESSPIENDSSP


Legend:
human CD20 [1] = molecular target: T1, human CD20; assay: cell-based or functional assay
human CD20 [2] = molecular target: T1, human CD20; assay: FACS KD on SB cells expressing CD20 (GMF against mAb concentration, nonlinear fit)
Method: The affinity of purified antibodies against CD20 (mAbs 1.1.2, 1.2.1, 2.1.2, 1.3.3, 1.5.3, 1.10.3.1, 1.13.2), Rituximab (positive control), and B1 was determined by FACS. Briefly, SB cells expressing CD20 were resuspended in FACS buffer (2% FBS, 0.05% NaN₃) at a concentration of approximately 5 million cells/mL. HSB cells were also resuspended in FACS buffer at a concentration of approximately 9 million cells/mL. Cells were kept on ice. Purified antibodies were serially diluted in filtered 1×PBS (2×) across 11 wells in 96-well plates. The twelfth well in each row contained buffer only. 1×PBS and cells were added to each mAb well such that the final volume was […] and each well contained approximately 375,000 cells. The final molecular concentration ranges for the mAbs were as follows:
Plates were placed on a plate shaker for 3 hours at 4° C., then spun and washed 3× with PBS. 200 μL of 145 nM Cy5 goat α-human polyclonal antibody was added to each well, and 200 μL of 192 nM Cy5 goat α-mouse polyclonal antibody was added to the cells complexed with B1 antibody. Plates were then incubated for 40 minutes at 4° C., then spun and washed 3× with PBS.
The Geometric Mean Fluorescence (GMF) of 10,000 cells for each mAb concentration was determined using a FACSCalibur instrument. No significant nonspecific binding (no significant signal) was apparent from the HSB cells. In each row containing the SB cells, the signal from the twelfth well (containing buffer only) was subtracted from the signal from the first 11 wells. A nonlinear plot of GMF as a function of molecular mAb concentration was fit using Scientist software using the equation: […]

Row | % Lysis Daudi 0.001 µg/ml ADCC (human CD20 [1]) [%] | % Lysis Daudi 1 µg/ml ADCC (human CD20 [1]) [%] | % Lysis Raji 0.001 µg/ml ADCC (human CD20 [1]) [%] | % Lysis Raji 1 µg/ml ADCC (human CD20 [1]) [%] | % Lysis Ramos 0.001 µg/ml ADCC (human CD20 [1]) [%] | % Lysis Ramos 1 µg/ml ADCC (human CD20 [1]) [%] | EC50 µg/ml Daudi CDC (human CD20 [1]) [µg/mL] | EC50 µg/ml Raji CDC (human CD20 [1]) [µg/mL] | EC50 µg/ml Ramos Apoptosis Alamar Blue (human CD20 [1]) [µg/mL] | EC50 µg/ml Ramos Apoptosis Annexin V (human CD20 [1]) [µg/mL] | EC50 µg/ml Ramos Apoptosis Cell Titer Glo (human CD20 [1]) [µg/mL] | EC50 µg/ml Ramos Apoptosis WST-1 (human CD20 [1]) [µg/mL] | EC50 µg/ml Ramos CDC (human CD20 [1]) [µg/mL] | Kd (human CD20 [2]) [µM] | Binder
1 | 17 | 63 | 3 | 10 | 2 | 29 | 9.39 | 1.31 | 0.026 | 0.191 | 0.0989 | 0.0383 | 2.07 | – | mAb 1.12.3 (antibody, human IgG1, V domains shown) VH: EVQLVQSGAEVKKPGESLKISCKGSGYSFTSYWIGWVRQMSGKGLEWMGIIYPGDSDTRYSPSFQGQVTISADKSISTAYLQWSSLKASDTAIYYCARHPSYGSGSPNFDYWGQGTLVTVSS VL: DIVMTQTPLSSPVTLGQPASISCRSSQSLVYSDGNTYLSWLQQRPGQPPRLLFYKISNRFSGVPDRFSGSGAGTDFTLKISRVEAEDVGVYYCVQATQFPLTFGGGTKVEIK
2 | 52 | 70 | 7 | 17 | 8 | 23 | 0.51 | 0.3 | 0.0329 | 0.163 | 0.0135 | 0.0067 | 0.16 | 0.0038 | mAb 2.1.2 (ATCC Accession Number PTA-7328) (antibody, human IgG1, V domains shown, Human IgG1 kappa; also called 2.1.1; 50-001H2_1_1) VH: EVQLVQSGAEVKKPGESLKISCKGSGYSFTSYWIGWVRQMPGKGLEWMGIIYPGDSDTRYSPSFQGQVTISADKSISTAYLQWSSLKASDTAMYYCARQGDFWSGYGGMDVWGQGTTVTVSS VL: DIVMTQTPHSSPVTLGQPASISCRSSQSLVSRDGNTYLSWLQQRPGQPPRLLIYKISNRFSGVPNRFSGSGAGTDFTLKISRVKAEDVGVYYCMQATQFPLTFGQGTRLEIK
3 | 77 | 96 | 12 | 53 | 15 | 84 | 0.8 | 0.4 | 0.0481 | 0.518 | 0.041 | 0.0055 | 0.24 | 0.0111 | mAb 1.1.2 (ATCC Accession Number PTA-7329) (antibody, human IgG1, V domains shown, also called 50-001H1_1_2) VH: EVQLVQSGAEVKKPGESLKISCKGSGYSFTSYWIGWVRQMPGKGLEWMGIIYPGDSDTRYRPSFQGQVTISADKSITTAYLQWSSLKASDTAMYYCARHPSYGSGSPNFDYWGQGTLVTVSS VL: not shown
4 | 62 | 72 | 7 | 37 | 4 | 52 | ~10 | 1.3 | 0.11 | 2.86 | 0.342 | 0.0514 | 13.1 | – | mAb 1.4.3 (antibody, human IgG1, V domains shown) VH: EVQLVQSGAEVKKPGESLKISCKGSGYSFTSYWIGWVRQMPGKGLEWMGIIYPGDSDTRYSPSFQGQVTISADKSITTAYLQWSSLKASDTAMYYCARHPSYGSGSPNFDYWGQGTLVTVSS VL: not shown
5 | 19 | 74 | 5 | 17 | 3 | 40 | > 10 | 52.9 | – | – | 0.528 | – | > 10 | – | mAb 1.9.2 (antibody, human IgG1, V domains shown) VH: EVQLVQSGAEVKKPGESLKISCKGSGYSFTSYWIGWVRQMPGKGLEWMGIIYPGDSDTRYSPSFQGQVTISADKSISTAYLQWSSLKASDTAMYYCARHGDFWSGYYSFDYWGQGTLVTVSS VL: not shown
6 | 60 | 79 | 7 | 44 | 12 | 65 | 1.66 | 0.5 | 0.0207 | 0.373 | 0.139 | 0.00076 | 1.03 | – | mAb 2.2.2 (antibody, human IgG1, V domains shown) VH: EVQLVQSGAEVKKPGESLKISCKGSGYSFTSYWIGWVRQMPGKGLEWMGIIYPGDSDTKYSPSFQGQVTISADKSISTAYLQWSSLKASDTAMYYCARQGDFWSGNGGMDVWGQGTTVTVSS VL: DIVMTQTPLSSPVTLGQPASISCRSSQSLVSRDGNTYLSWLQQRPGQPPRLLIYKISNRFSGVPDRFSGSGAGTDFTLKISRVEVEDVGVYYCMQATQFPITFGQGTRLEIK
7 | 66 | 79 | 10 | 53 | 8 | 60 | ~10 | 0.53 | 0.08 | 1.03 | 0.191 | 0.037 | 2.56 | 0.0091 | mAb 1.5.3 (ATCC Accession Number PTA-7330) (antibody, human IgG1, V domains shown, Fully human IgG1 kappa; also called 50-001H1_5_3) VH: EVQLVQSGAEVKKPGESLKISCKGSGYSFTSYWIGWVRQMPGKGLEWMGIIYPGDSDTRYSPSFQGQVTISADKSITTAYLQWSSLKASDTAMYYCARHPSYGSGSPNFDYWGQGTLVTVSS VL: not shown
8 | 24 | 74 | 5 | 21 | 4 | 33 | ~10 | 3.54 | 0.291 | 2.97 | 1.44 | 0.096 | 6.82 | 0.0236 | mAb 1.13.2 (antibody, human IgG1, V domains shown, Human IgG1 kappa; also called 1.13.1; 50-001H1_13_1) VH: EVQLVQSGAEVKKPGESLKISCKGSGYSFTNYWIGWVRQMPGKGLEWMGIIYPGDSDTRYSPSFQGQVTISADKSISTAYLQWSSLKASDTAMYYCARQGDYYHYSGMDVWGQGTTVTVSS VL: DVVMTQSPLSLSVTLGQPASISCRSSQSLVYNDGDTYLNWFQQRPGQSPRLLIYKVSNWDSGVPDRFSGSGSGTDFTLKVSRVEAEDVGVYYCMQGTHWPLTFGGGTKVEIK
9 | 77 | 79 | 5 | 36 | 3 | 43 | ~10 | 0.38 | 0.16 | 0.67 | 0.476 | 0.0393 | 0.31 | – | mAb 1.6.2 (antibody, human IgG1, V domains shown) VH: EVQLVQSGAEVKKPGESLKISCKGSGYSFTSYWIGWVRQMPGKGLEWMGIIYPGDSDTRYSPSFQGQVTISADKSISTAYLQWSSLKASDTAMYYCARHGDYSNIDAFDIWGQGTMVTVSS VL: DVVMTQSPLSLPVTLGQPASISCRSSQSLVYSDGNAYLNWFQQRPGQSPRRLIYKVSNWDSGVPDRFSGSGSGTDFTLKIRRVEAEDVGAYYCMQGIHCTFGPGTKVHIK
10 | 36 | 76 | 9 | 24 | -3 | 46 | ~10 | 3.72 | 0.112 | 4.68 | 0.983 | 0.042 | 3.12 | – | mAb 2.4.1 (antibody, human IgG1, V domains shown) VH: EVQLVQSGAEVKKPGESLKISCKGSGYSFTNYWIGWVRQMPGKGLEWMGIIYPGDSDTRYSPSFQGQVTISADKSISTAYLQWSSLKASDTAMYYCARHGDYYASESSAFDIWGQGTMVTVSS VL: not shown
11 | – | – | – | – | – | – | – | – | – | – | – | – | – | 0.0112 | mAb 1.10.3.1 (antibody, human IgG1, V domains shown, Human IgG1 kappa; also called 50-001H1_10_3_1) VH: EVQLVQSGAEVKKPGESLKISCKGSGYSFTSYWIGWVRQMPGKGLEWMGIIYPGDSDTRYSPSFQGQVTISADKSISTAYLQWSSLKASDTAMYYCARMGDFWSGYYTRGMDVWGQGTTVTVSS VL: EIVMTQSPATLSVSPGERATLSCRASQSVSSNLAWYQQKPGQAPRLLISGASTRATGIPARFSGSGSGTEFTLTISSLQSEDFAVYYCHQYNDWSLTFGGGTKVEIK
